Test results published in publication PMC8856733.
One block for each substance: values may come before it.

Columns and labels:
Experiment in all cases: SEC
[1] = target: human glycyl-tRNA synthetase (GlyRS) C157R, CMT mutant (human)
[2] = target: human glycyl-tRNA synthetase (GlyRS) E71G, CMT mutant (human)
[3] = target: human glycyl-tRNA synthetase (GlyRS) E279D, CMT mutant (human)
[4] = target: human glycyl-tRNA synthetase (GlyRS) G240R, CMT mutant (human)
[5] = target: human glycyl-tRNA synthetase (GlyRS) G526R, CMT mutant (human)
[6] = target: human glycyl-tRNA synthetase (GlyRS) L129P, CMT mutant (human)
[7] = target: human glycyl-tRNA synthetase (GlyRS), wild type (human)

stoichiometry N [1]: 2
Substance: human glycyl-tRNA synthetase (GlyRS) C157R, CMT mutant (enzyme)

stoichiometry N [2]: 2
Substance: human glycyl-tRNA synthetase (GlyRS) E71G, CMT mutant (enzyme)

stoichiometry N [3]: 2
Substance: human glycyl-tRNA synthetase (GlyRS) E279D, CMT mutant (enzyme)

stoichiometry N [4]: 2
Substance: human glycyl-tRNA synthetase (GlyRS) G240R, CMT mutant (enzyme)

stoichiometry N [5]: 2
Substance: human glycyl-tRNA synthetase (GlyRS) G526R, CMT mutant (enzyme)

stoichiometry N [6]: 2
Substance: human glycyl-tRNA synthetase (GlyRS) L129P, CMT mutant (enzyme)

stoichiometry N [7]: 2
Substance: human glycyl-tRNA synthetase (GlyRS), wild type (enzyme)
